Target: full-length human VPS29 (human, UniProt Q9UBQ0 1-182)
Experiment: ITC; TBC proteins (100∼200 μM) injected into retromer proteins (8–16 μM); 20 °C; 20 mM Tris pH 8, 200 mM NaCl, 5 mM βME; one set of sites model
Conditions: both partners purified

B1: TBC1d5 Ins1 peptide (peptide)
peptide: GQQDLMINNPLSQDEGSLWNKFFQDKE
notes: TBC1d5 residues 132–158 (Insertion 1 region); The limits are told for the crystallised peptide; source: expressed as MBP fusion, purified (Amylose resin, TEV cleavage, Ni-NTA, Superdex 75); not shown: His6, C-terminal, kept
- binding result: binds
